Experimental data as given in patent publication US20250215412A1 (NOVOZYMES A S, published 2025).
Positions count from the first letter of the chain named.

Tests used:
Test in all cases: cell-based or functional assay
[1] = molecular target: T1, Chryseobacterium sp-62563 deamidase V190A (Chryseobacterium sp-62563)
T1 chain: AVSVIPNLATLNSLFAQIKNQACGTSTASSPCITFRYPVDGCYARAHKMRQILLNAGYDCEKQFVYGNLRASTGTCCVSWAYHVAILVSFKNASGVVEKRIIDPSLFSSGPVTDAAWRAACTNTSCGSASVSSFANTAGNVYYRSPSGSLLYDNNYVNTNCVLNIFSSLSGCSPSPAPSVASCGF

[2] = molecular target: T2, Chryseobacterium sp-62563 deamidase V190D (Chryseobacterium sp-62563)
T2 chain: T1 chain with A81D

[3] = molecular target: T3, Chryseobacterium sp-62563 deamidase V190F (Chryseobacterium sp-62563)
T3 chain: T1 chain with A81F

[4] = molecular target: T4, Chryseobacterium sp-62563 deamidase V190K (Chryseobacterium sp-62563)
T4 chain: T1 chain with A81K

[5] = molecular target: T5, Chryseobacterium sp-62563 deamidase V190P (Chryseobacterium sp-62563)
T5 chain: T1 chain with A81P

[6] = molecular target: T6, Chryseobacterium sp-62563 deamidase V190Q (Chryseobacterium sp-62563)
T6 chain: T1 chain with A81Q

[7] = molecular target: T7, Chryseobacterium sp-62563 deamidase S254K (Chryseobacterium sp-62563)
T7 chain: T1 chain with A81V, S145K

[8] = molecular target: T8, Chryseobacterium sp-62563 deamidase P255D (Chryseobacterium sp-62563)
T8 chain: T1 chain with A81V, P146D

[9] = molecular target: T9, Chryseobacterium sp-62563 deamidase L259P (Chryseobacterium sp-62563)
T9 chain: T1 chain with A81V, L150P

[10] = molecular target: T10, Chryseobacterium sp-62563 deamidase L260K (Chryseobacterium sp-62563)
T10 chain: T1 chain with A81V, L151K

[11] = molecular target: Chryseobacterium sp-62563 deamidase A131* (Chryseobacterium sp-62563)
[12] = molecular target: Chryseobacterium sp-62563 deamidase D262* (Chryseobacterium sp-62563)
[13] = molecular target: Chryseobacterium sp-62563 deamidase V148* (Chryseobacterium sp-62563)

NanoDSF thermal unfolding temperature [1]: 68.6 ° C.
NanoDSF thermal unfolding temperature [2]: 75.4 ° C.
NanoDSF thermal unfolding temperature [3]: 78.2 ° C.
NanoDSF thermal unfolding temperature [4]: 76.4 ° C.
NanoDSF thermal unfolding temperature [5]: 74.9 ° C.
NanoDSF thermal unfolding temperature [6]: 75.8 ° C.
NanoDSF thermal unfolding temperature [7]: 81.1 ° C.
NanoDSF thermal unfolding temperature [8]: 81.4 ° C.
NanoDSF thermal unfolding temperature [9]: 80 ° C.
NanoDSF thermal unfolding temperature [10]: 75.5 ° C.
NanoDSF thermal unfolding temperature [11]: 79.1 ° C.
NanoDSF thermal unfolding temperature [12]: 77.7 ° C.
NanoDSF thermal unfolding temperature [13]: 69.2 ° C.
B1: Chryseobacterium sp-62563 propeptide (first polypeptide, propeptide domain), wildtype (other)
chain: NQDPNLVAKESNETAMKDFGKTVPVGIEKEDGKFKISFMVTAQPYEIKDSKENAAYISMIKTAVENETPIHVFLKANTNEIAKVDKATDDDIRYFKSVFTKEVKEENRK
